Earlier results in patent US9205345B2, “Spray-drying apparatus and methods of using the same” (Bend Research, Inc., priority 2010, dated 2015).

Assays:
[1] = not given; remark: listed apart in the source
[2] = not given; remark: listed apart in the source

CC(C)(C)NCC(O)c1ccc(O)c(CO)c1 (centres unmarked) [Active Agent 1, 4-[2-(tert-butylamino)-1-hydroxyethyl]-2-(hydroxymethyl)phenol, reference compound]
solubility in water: freely soluble in water | Log P [1]: 0.11

insulin [Active Agent 2]
Log P [1]: 0.22 | pKa [2]: 5.39

Peptide YY (PYY) [Active Agent 3]
solubility in water: soluble in water
